For experiment [1], the system named is NIH3T3 cells. Kind of experiment: BrdU incorporation (DNA synthesis) in transfected versus untransfected NIH3T3 cells. Format: cell-based, mouse. The following applies: BrdU labeling for 24 h. The protocol:
In addition, constructs coding for cyan fluorescent protein with a nuclear localization signal (CFP-nuc), yellow fluorescent protein fused to actin (YFP-actin), or vector construct alone were used as controls. Cells were then labeled with BrdU for 24 h and analyzed cells in situ by immunocytochemistry for BrdU and noxin (or other listed proteins) (FIG. 11A-C). In the figures, signals from anti-FLAG antibodies are seen in red; anti-BrdU antibodies are green; Hoechst 33342 (blue) was used for nuclear counter-staining. […] Recombinant protein was detected on a Western blot using the anti-FLAG antibody.
For orientation: Uptake of a labelled nucleoside into DNA is a usual measure of proliferation.

The test system of experiment [2] is NIH3T3 cells. Kind of experiment: Cell cycle distribution of pFLAG-noxin transfected cells by flow cytometry. It counts as cell-based, mouse. The settings on record: anti-FLAG staining, DNA content. As to the method:
After transfection with pFLAG-noxin or pcDNA3 vector, cell division was arrested with three different treatments (nocodazole, aphidicolin, or low concentration of serum). Cells were stained with anti-FLAG antibody and FITC-conjugated anti-mouse IgG antibody after permeabilization. Cell cycle distributions of untransfected and transfected cells were analyzed by DAPI staining and flow cytometry.
A general note: A flow cytometer gives signals particle by particle.

The test system of experiment [3] is MEFs from p53-deficient mice. The experiment can be described thus: DNA synthesis in p53-deficient MEFs expressing noxin. Format: cell-based, mouse. As to the method:
Noxin action was also analyzed in p53-deficient MEFs.

In the next experiment the test system is p53. Kind of experiment: p53 levels in transfected cells by immunocytochemistry and flow cytometry. It counts as cell-based. The protocol: The cells were labeled with […] (BrdU) (10 μM) and incubating for the time periods indicated. The cells were collected from plates by trypsin digestion were suspended in saline and fixed with 70% ethanol. After washing with PBS containing 0.05% BSA, 1×10^6 cells were incubated with FITC-conjugated anti-BrdU antibody (Pharmingen, 1:500) for 1 hr, suspended in PBS-BSA with 5 μg/ml propidium iodide (PI) and 20 μg/ml RNase A, and incubated further for 30 min at room temperature. For the bivariate cell cycle analysis, cells were analyzed using LSRII flow cytometer ([…]). […] Cells were analyzed for PE, FITC, and GFP fluorescence by flow cytometry.
Cells were transfected with pFLAG-noxin- or GFP-expressing plasmids and the levels of p53 were determined using immunocytochemistry and flow cytometry. […] 13a-c: which were stained with anti-FLAG and anti-p53 primary antibodies and ALEXA Fluor 596- and 488-conjugated secondary antibodies, respectively. […] 14a-d: Cells transfected with pFLAG-noxin (upper panels) and pEGFP (taken as control; lower panels) that were stained with anti-FLAG and anti-p53 primary antibodies, and PE- and FITC-conjugated secondary antibodies. Then Noxin-FLAG- or EGFP-negative (left panels) and positive (right panels) cells were analyzed for the amount of p53 protein.

Results on one molecule are retold here after patent US20090162848A1, “Noxin, a novel stress-induced gene involved in cell cycle and apoptosis” (COLD SPRING HARBOR LABORATORY, priority 2007, published 2009).

B1: noxin: noxin tagged with the FLAG epitope at its N-terminus, expressed from plasmid pFLAG-noxin (mouse, SEQ ID NO: 2) (protein)
chain: MNKRRKFLFASVLAVQNSNFIYPSCQRCFSKIILESKRFTCPKCGSSGDTGSTNYRYKLSLKVAESSKLFFITVFGSCLDTFFGLTATGLHRYLEDSIKNLETLDSGRTQSLLTTAVEKCFVGQSFVFGVTNFGDVCGHDSDSSNFQQPCCKHRGEVRTLVASQIILPSPHVKGFTVIAYLHPLLHKKPHCGSQEHSSQSLTSDDSDSDLNNIQGSGNTSWFSESSVGEDFFRYWEPSLELTSSDSQVTSSDDFPASKQIMASGTPNQNRHCISVSEVTSSKNCHDSLQSLWSLHSCMDKNNTTGKLGEELGLPSPVCNSCHESRLSDSHFFPSQMQEPFEEHNLECYSKAEKNDYSQYDIACYQHHEVNTTPILQQRSSAFSLSSLKPEETANPSQNSDSLIWDDLPLSESLNKFLAVVESEVAVTEIDAKNRKQGMDKSIDKCHKNYSRLSLTPWRNTRALNTSCFSLRSSQAMMKDSGKEALFSNCKSNSSPHIQKESKADKTEAAVSIAGSRSDISEDFLPDTCSSALFTSSKDREAFITQKRTSGVLQQRNEISCRPSTSISDCSDLRSRYFTGCGQKLHSGTKGKLAIQNCSKKYSDASDLHKLENKHRWPKKEDDNFTICRKLTYPLETLCSSPESINTSKEMPYRPSNNNLTPSSSGDHEGSYNASAGLFDYIAKDKDIGTEITKIPQDNLLPLEVPCTENYPINENRGQPSQKPSLQSISPSRYSRPRSQSDSECDFEESQDFVPCSQSTPVAGFHQRIHGLNGASKILPSIYSNHNANYKNRKNSPLTGQYQATSACSKNVKAFRQKPESPFVSSLTQANVFNHCPAAESLGNDVDEWVPPTTKKVFISDILGFRVMGLRKCLDLHYSPDPKELPRKKLIKVTHKTNI
modifications: left off: small tags and cut ends
B1: the “fraction of BrdU-positive cells in transfected cells, % of the value for the untransfected cells” value in the experiment on NIH3T3 cells [1] was found to be 24%. Moreover, in the experiment with NIH3T3 cells [2], the “cell cycle phase of cells expressing the transfected gene” value is “arrested in G1 or early S phase”. Besides, the “suppression of DNA synthesis” value in experiment [3] is recorded as “effective”. Also, in the experiment on p53, the “p53 levels in cells that received the gene” value is given as “increased”.
